Laboratory results published in the supplement of paper PMC10126150.
± gives the standard deviation of the averaged measurements.

Test system: ATP
Assay: switch fluorescence ratio, 500 uM ATP over buffer (Cy3 cluster intensity, sum of 5 cycles each) (fold (ratio)); higher = stronger signal-on switching upon ATP binding; sequences stand for … in TCGTCGGCAGCGTCAGATGTGTATAAGAGACAGTTTTTTTTTTTTTTTTTTTTTTTTT…TC
Details: aptamer strand: ATP DNA aptamer (quencher-CACCTGGGGGAGTATTGCGGAGGAAGG + anchor), 100 nM annealed; ATP concentration: 500 uM
Outline: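 Cy3-labelled switching-strand clusters on a modified Illumina MiSeq flow-cell were annealed to 100 nM quencher-labelled ATP aptamer, imaged in selection buffer, then imaged after 15 min with 500 uM ATP at 22 °C. Five buffer/ATP cycles ran, with NaOH stripping and re-annealing between them. The fluorescence ratio is summed target-cycle over summed buffer-cycle Cy3 intensity per cluster, averaged per switch-domain sequence. Clusters outside 100-1000 RFU were excluded.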
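Also: ATP exposure 15 min at 22 °C before imaging.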

Sequence	switch fluorescence ratio
ATAGTCGGGC	0.99 ± 0.022
ATAGTGATCG	0.994 ± 0.042
ATAGTGGAGG	1.01 ± 0.025
ATAGTGGTGG	1.01 ± 0.052
ATAGTTATCT	1.03 ± 0.026
ATAGTTCAGC	0.9822 ± 0.0058
ATAGTTGAGG	0.981 ± 0.02
ATAGTTTACT	1.01 ± 0.024
ATAGTTTGAG	1.01 ± 0.018
ATAGTTTGCC	0.994 ± 0.043
ATAGTTTGGA	0.947 ± 0.017
ATATAATAGT	0.991 ± 0.015
ATATAATCAA	0.98075 ± 0.00037
ATATACGGGG	1.04 ± 0.02
ATATAGAGTT	1.02 ± 0.082
ATATAGGCTG	1.01 ± 0.018
ATATAGGGAT	1.021 ± 0.007
ATATAGGGTG	1.09 ± 0.019
ATATAGTCCT	0.9714 ± 0.0023
ATATAGTTTT	0.953 ± 0.011
ATATATAGTC	1.02 ± 0.025
ATATATATAT	1.01 ± 0.012
ATATATCGTT	0.981 ± 0.024

Sequence	switch fluorescence ratio
ATATATGGCT	0.999 ± 0.035
ATATATTTCG	1.01 ± 0.017
ATATCACGCT	1.03 ± 0.023
ATATCAGACT	0.99 ± 0.015
ATATCAGCGC	1.03 ± 0.018
ATATCATCTC	1.002 ± 0.0063
ATATCCCCCA	1.15 ± 0.11
ATATCCCTGG	1.11 ± 0.013
ATATCCGTTT	0.974 ± 0.066
ATATCGTTCG	1.02 ± 0.054
ATATCTATAG	0.958 ± 0.018
ATATCTGAGT	1.03 ± 0.016
ATATCTTTCT	1.006 ± 0.0023
ATATCTTTTT	0.983 ± 0.037
ATATGAAAAT	1.01 ± 0.032
ATATGAAGAA	0.968 ± 0.01
ATATGACGCT	1.04 ± 0.09
ATATGCGGGG	0.949 ± 0.011
ATATGGCCGT	0.994 ± 0.023
ATATGGGCGG	0.98 ± 0.016
ATATGGGGGA	0.99 ± 0.038
ATATGGTAAA	0.958 ± 0.015
ATATGTAGAG	1.05 ± 0.046

Sequence	switch fluorescence ratio
ATATGTCGGT	0.963 ± 0.013
ATATGTCTAG	0.989 ± 0.01
ATATTAAAAT	1.02 ± 0.021
ATATTAAGGC	0.983 ± 0.017
ATATTAGGTT	0.998 ± 0.018
ATATTGACCG	1.03 ± 0.022
ATATTGATAG	1 ± 0.0064
ATATTGGGCC	0.997 ± 0.017
ATATTGTACG	1.03 ± 0.022
ATATTGTAGT	0.9969 ± 0.0089
ATATTGTGGG	0.987 ± 0.023
ATATTGTGTG	1.01 ± 0.048
ATATTTATCG	1.01 ± 0.033
ATATTTATTT	1.015 ± 0.009
ATATTTCATG	1.006 ± 0.0091
ATATTTCTAA	1.0113 ± 0.00013
ATATTTCTGG	0.986 ± 0.018
ATATTTCTGT	0.981 ± 0.019
ATATTTGCGA	0.973 ± 0.022
ATATTTTAGT	1.03 ± 0.031
ATATTTTATT	1.02 ± 0.031
ATATTTTCGC	1.04 ± 0.03
ATATTTTTGT	1.03 ± 0.014

Sequence	switch fluorescence ratio
ATCAAAGTTT	0.994 ± 0.042
ATCAAATAGT	1.01 ± 0.037
ATCAAGTCGG	0.969 ± 0.02
ATCAAGTGGT	0.9701 ± 0.006
ATCAATATAG	1.03 ± 0.018
ATCAATGACG	0.95 ± 0.059
ATCACGGGGA	1.01 ± 0.032
ATCACGTCGG	1.014 ± 0.0093
ATCACTGGTA	1.03 ± 0.017
ATCAGAATAC	1.74 ± 0.43
ATCAGAGGTA	1.01 ± 0.014
ATCAGCCGGC	0.99 ± 0.034
ATCAGGGCT	1.01 ± 0.028
ATCAGGGGAG	1 ± 0.018
ATCAGGGGGC	1.03 ± 0.036
ATCAGGGTGT	1.16 ± 0.031
ATCAGGTGCG	1.2924 ± 0.00069
ATCATAATAC	1.406 ± 0.0065
ATCATAATTG	1.005 ± 0.0092
ATCATCGCAG	1.08 ± 0.058
ATCATCTGAA	0.987 ± 0.016
ATCATCTTGT	1.042 ± 0.0015
ATCATGGATG	0.997 ± 0.019

Sequence	switch fluorescence ratio
ATCATGTGGC	0.989 ± 0.025
ATCATTGCGG	0.9746 ± 0.0012
ATCATTGCTG	0.949 ± 0.056
ATCATTGGTT	1.01 ± 0.015
ATCATTTATT	1.01 ± 0.042
ATCATTTGGC	0.981 ± 0.068
ATCATTTTAG	0.995 ± 0.01
ATCCACGCTA	1.45 ± 0.022
ATCCAGGTTT	1.1 ± 0.036
ATCCCAATGT	1.14 ± 0.026
ATCCCTTCCA	1.24 ± 0.087
ATCCGGGCGG	1.02 ± 0.071
ATCCGTTGCT	1.01 ± 0.048
ATCCTGGGGG	1.4 ± 0.7
ATCCTGTAGT	0.999 ± 0.044
ATCCTTGTGT	0.993 ± 0.02
ATCCTTTTGG	1.03 ± 0.094
ATCGAAAGTT	0.99 ± 0.013
ATCGAAGGTC	0.999 ± 0.015
ATCGAATGCT	1.001 ± 0.0096
ATCGACCGGC	1.04 ± 0.071
ATCGACTTGG	1.016 ± 0.0053
ATCGAGAGGC	1.06 ± 0.047

Sequence	switch fluorescence ratio
ATCGATCGTT	0.9986 ± 0.0027
ATCGATGGGA	0.987 ± 0.07
ATCGATTTCG	0.975 ± 0.017
ATCGCAGACA	1.04 ± 0.015
ATCGCTAGCT	0.9905 ± 0.0068
ATCGGAATCC	1.19 ± 0.094
ATCGGACGGG	1.02 ± 0.016
ATCGGATTAG	0.995 ± 0.0094
ATCGGCACAT	1.1 ± 0.012
ATCGGCGCGC	0.9957 ± 0.0026
ATCGGGAACT	1.02 ± 0.015
ATCGGGGGAC	0.959 ± 0.021
ATCGGGGGGC	1 ± 0.055
ATCGGGGGGT	1.01 ± 0.035
ATCGGGGGTA	0.982 ± 0.016
ATCGGGTCGA	1 ± 0.023
ATCGGGTGTA	0.994 ± 0.013
ATCGGTACTG	0.965 ± 0.027
ATCGGTTTCT	1.002 ± 0.0083
ATCGGTTTGG	0.996 ± 0.0095
ATCGTAAGGA	1.02 ± 0.046
ATCGTACAGC	1.13 ± 0.017
ATCGTCACGG	1.022 ± 0.0012

Sequence	switch fluorescence ratio
ATCGTCGGAT	0.982 ± 0.022
ATCGTCTCGC	1.03 ± 0.05
ATCGTGGGGT	0.971 ± 0.016
ATCGTGTATG	0.968 ± 0.028
ATCGTTAAAC	1.01 ± 0.0099
ATCGTTAATT	0.981 ± 0.041
ATCGTTACGA	1.02 ± 0.026
ATCGTTCGCG	0.996 ± 0.016
ATCGTTCTTT	0.973 ± 0.027
ATCGTTGCGT	1.02 ± 0.031
ATCTAAACTT	1.02 ± 0.035
ATCTAAATAA	1.03 ± 0.019
ATCTAAGGTT	1.01 ± 0.025
ATCTAGCAAC	1.36 ± 0.049
ATCTAGGTAC	1.06 ± 0.058
ATCTATCGGA	1.0073 ± 0.00071
ATCTATGCGA	1.0635 ± 0.0004
ATCTCAGGGC	0.979 ± 0.014
ATCTCATAGT	1 ± 0.025
